Measurements taken from US20160039895A1 (published 2016).

Assays:
[1] = target: T1, human VEGFR2 on cells (PAE/KDR cells, HUVEC) (human, UniProt P35968 20-1356); assay: flow cytometry titration on PAE/KDR cells, anti-FLAG detection
T1 construct: whole, on cells

[2] = target: T2, VEGFR2 on SVR angiosarcoma cells (murine cell line) (murine, UniProt P35918 20-1345); assay: flow cytometry on SVR cells
T2 construct: whole, on cells

[3] = target: T3, αiibβ3 integrin on transfected K562 cells (UniProt P08514 32-1039; P05106 27-788, limits assumed); assay: flow cytometry on K562 cells transfected with αiibβ3
T3 construct: whole, on cells

[4] = target: T4, α5β1 integrin on wild-type K562 cells (UniProt P08648 42-1049; P05556 21-798, limits assumed); assay: flow cytometry on wild-type K562 cells
T4 construct: whole, on cells

[5] = target: T5, αvβ5 integrin on transfected K562 cells (UniProt P06756 31-1048; P18084 24-799, limits assumed); assay: flow cytometry on K562 cells transfected with αvβ5
T5 construct: whole, on cells

[6] = target: T6, porcine αvβ3 integrin on PAE cells (porcine, UniProt A0A5K1V6L8 31-1052; A0A8D0RDV2 33-793); assay: flow cytometry on PAE cells
T6 construct: whole, on cells

[7] = target: T7, human αvβ3 integrin on cells (human, UniProt P06756 31-1048; P05106 27-788); assay: flow cytometry on U87MG cells (no VEGFR2; receptor not named by the filing)
T7 construct: whole, on cells; also called avb3; alpha v beta 3

[8] = target: T8, recombinant human VEGFR2 extracellular domain (human, UniProt P35968 20-764); assay: SPR (BIAcore 3000), VEGFR2 amine-coupled to CM5 chip, scVEGF as analyte, 1:1 model
T8 construct: extracellular domain; also called KDR; Flk-1
T8 sequence (P35968 20-764): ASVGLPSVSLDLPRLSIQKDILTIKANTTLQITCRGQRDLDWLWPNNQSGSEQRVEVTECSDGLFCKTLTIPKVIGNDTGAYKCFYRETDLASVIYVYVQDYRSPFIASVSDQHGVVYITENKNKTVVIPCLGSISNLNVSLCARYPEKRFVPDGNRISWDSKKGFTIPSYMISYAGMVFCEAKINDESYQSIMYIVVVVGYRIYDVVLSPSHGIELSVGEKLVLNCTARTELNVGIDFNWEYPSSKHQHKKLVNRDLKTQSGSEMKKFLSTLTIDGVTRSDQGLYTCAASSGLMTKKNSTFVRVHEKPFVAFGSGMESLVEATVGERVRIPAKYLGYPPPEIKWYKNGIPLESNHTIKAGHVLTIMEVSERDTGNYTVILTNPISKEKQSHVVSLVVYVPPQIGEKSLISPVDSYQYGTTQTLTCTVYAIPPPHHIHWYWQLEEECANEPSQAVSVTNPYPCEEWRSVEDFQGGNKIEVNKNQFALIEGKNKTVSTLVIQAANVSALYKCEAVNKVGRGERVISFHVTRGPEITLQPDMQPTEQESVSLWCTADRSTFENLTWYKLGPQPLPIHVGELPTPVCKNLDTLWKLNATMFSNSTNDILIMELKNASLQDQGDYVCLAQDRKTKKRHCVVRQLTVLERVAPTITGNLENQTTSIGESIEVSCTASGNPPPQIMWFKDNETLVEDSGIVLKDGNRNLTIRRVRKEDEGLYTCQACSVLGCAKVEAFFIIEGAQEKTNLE

T1 sequence (P35968 20-1356): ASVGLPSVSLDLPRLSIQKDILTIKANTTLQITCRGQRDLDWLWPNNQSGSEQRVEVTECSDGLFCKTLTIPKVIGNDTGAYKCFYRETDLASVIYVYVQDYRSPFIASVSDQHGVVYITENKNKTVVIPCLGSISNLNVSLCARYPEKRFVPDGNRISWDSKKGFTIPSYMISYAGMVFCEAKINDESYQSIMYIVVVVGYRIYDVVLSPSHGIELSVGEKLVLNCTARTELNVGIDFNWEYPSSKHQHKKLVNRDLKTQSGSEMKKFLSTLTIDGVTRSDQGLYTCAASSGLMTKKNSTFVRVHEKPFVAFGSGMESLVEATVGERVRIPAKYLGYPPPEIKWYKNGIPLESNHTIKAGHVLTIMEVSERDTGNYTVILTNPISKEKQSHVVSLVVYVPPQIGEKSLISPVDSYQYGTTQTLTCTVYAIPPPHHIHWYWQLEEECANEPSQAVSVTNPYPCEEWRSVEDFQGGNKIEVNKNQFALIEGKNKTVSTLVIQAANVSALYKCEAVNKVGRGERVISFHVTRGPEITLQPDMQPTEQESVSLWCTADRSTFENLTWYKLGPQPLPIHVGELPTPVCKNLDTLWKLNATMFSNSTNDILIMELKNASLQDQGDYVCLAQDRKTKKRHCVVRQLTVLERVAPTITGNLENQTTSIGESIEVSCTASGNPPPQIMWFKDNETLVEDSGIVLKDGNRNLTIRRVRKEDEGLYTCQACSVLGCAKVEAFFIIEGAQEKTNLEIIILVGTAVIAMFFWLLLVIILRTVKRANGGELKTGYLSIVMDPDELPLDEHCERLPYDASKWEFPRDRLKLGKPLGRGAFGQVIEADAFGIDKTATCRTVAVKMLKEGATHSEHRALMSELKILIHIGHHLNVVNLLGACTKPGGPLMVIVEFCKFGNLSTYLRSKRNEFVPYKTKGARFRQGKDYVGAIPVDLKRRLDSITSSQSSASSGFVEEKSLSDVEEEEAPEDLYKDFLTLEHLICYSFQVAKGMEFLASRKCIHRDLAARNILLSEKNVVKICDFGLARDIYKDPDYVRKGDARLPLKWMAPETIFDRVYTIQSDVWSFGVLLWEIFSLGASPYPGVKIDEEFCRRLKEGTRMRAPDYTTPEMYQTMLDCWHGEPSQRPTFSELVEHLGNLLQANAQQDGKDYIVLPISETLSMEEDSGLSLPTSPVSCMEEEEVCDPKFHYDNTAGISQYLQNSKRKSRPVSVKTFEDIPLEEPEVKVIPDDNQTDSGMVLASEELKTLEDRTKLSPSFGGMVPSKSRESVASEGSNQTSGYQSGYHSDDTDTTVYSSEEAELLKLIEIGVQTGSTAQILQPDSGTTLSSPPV
T4 sequence (P08648 42-1049 limits assumed, chain 1 of 2): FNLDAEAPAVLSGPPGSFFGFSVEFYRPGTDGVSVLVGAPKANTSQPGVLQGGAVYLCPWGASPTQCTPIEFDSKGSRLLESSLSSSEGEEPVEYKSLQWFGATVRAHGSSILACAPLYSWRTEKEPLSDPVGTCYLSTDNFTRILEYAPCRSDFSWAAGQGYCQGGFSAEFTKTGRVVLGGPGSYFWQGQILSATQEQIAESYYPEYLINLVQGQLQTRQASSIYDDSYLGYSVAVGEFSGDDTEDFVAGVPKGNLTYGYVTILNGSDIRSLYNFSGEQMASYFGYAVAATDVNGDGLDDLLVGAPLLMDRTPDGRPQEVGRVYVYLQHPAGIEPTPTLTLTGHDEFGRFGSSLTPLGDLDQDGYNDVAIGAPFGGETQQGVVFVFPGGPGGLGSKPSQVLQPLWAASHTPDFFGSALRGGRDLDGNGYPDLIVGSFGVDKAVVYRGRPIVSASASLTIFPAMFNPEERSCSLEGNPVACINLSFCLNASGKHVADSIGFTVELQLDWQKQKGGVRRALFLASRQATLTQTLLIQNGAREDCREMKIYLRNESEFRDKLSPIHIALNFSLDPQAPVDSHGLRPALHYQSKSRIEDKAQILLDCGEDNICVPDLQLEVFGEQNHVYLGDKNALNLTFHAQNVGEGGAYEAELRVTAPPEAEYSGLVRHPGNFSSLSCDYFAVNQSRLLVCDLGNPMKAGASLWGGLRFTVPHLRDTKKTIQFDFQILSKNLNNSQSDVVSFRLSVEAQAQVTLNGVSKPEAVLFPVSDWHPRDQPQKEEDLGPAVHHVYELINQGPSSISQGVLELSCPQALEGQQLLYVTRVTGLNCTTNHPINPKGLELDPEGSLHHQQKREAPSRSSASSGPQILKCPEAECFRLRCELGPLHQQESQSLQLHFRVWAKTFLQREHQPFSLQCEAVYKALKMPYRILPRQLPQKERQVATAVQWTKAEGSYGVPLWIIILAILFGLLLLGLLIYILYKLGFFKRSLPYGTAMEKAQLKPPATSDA
T4 sequence (P05556 21-798 limits assumed, chain 2 of 2): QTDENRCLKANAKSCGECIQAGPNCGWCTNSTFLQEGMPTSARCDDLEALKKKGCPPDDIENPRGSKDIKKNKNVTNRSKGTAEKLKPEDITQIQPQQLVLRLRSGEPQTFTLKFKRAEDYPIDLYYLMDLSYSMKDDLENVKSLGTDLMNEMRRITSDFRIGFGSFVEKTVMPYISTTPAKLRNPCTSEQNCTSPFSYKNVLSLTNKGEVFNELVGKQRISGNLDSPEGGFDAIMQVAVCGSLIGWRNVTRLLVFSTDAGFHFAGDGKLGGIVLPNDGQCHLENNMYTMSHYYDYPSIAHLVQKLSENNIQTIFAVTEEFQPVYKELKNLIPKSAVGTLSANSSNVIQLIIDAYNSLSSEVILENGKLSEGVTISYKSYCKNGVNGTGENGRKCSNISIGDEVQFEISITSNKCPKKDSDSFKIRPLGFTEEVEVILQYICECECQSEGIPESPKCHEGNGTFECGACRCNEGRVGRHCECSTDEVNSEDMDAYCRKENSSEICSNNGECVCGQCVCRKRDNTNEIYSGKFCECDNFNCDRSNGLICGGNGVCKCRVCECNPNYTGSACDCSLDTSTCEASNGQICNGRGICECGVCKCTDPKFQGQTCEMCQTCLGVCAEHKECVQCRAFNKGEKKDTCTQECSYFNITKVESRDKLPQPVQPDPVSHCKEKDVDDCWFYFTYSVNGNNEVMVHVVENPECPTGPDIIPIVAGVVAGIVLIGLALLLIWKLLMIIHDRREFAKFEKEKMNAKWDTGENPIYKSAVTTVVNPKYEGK

B1: scVEGF-mM (designed binder)
chain: EVVKAMDVYRRSYCHPVETSVDILQEYPDEIEYIFKPSCVPLMRCGGCCNDAGLECVPTEESNTTMQIMRIKPYRGQHIGEMSFLQHNKCECRPKKDGSTSGSGKSSEGKGEVVKFMDVYQRSYCHPIETLVDIFQEYPDEIEYAFKPSCVSLMRCGGCCNNEGLECVPTEESNITVQIMGAKPHQGQHIGEMSFLQHNKCECRPKKD
notes: Soluble protein with C-terminal hexahistidine tag, with or without N-terminal FLAG tag (tags not included in the parts); also called scVEGFmut-M
B1 was tested, and the Kd [1] was 34 nM, the binding result [2] was “no binding (tested: 1 µM)” and the binding result [3] was “no binding”. B1: no binding [4]; no binding [5]; no binding (tested: 1 µM) [6]. The binding result [7] was “no binding (tested: 1 µM)”, the Kd [8] was 3.8 nM and the koff [8] was 0.00108 s⁻¹. The kon [8] was 290000 M⁻¹ s⁻¹.
